# Source: patent US20160311886A1, “Constructs Binding to Phosphatidylserine and Their Use in Disease Treatment and Imaging” (Board of Regents, The University of Texas System, priority 2005, published 2016)
# B1: Fc-mβ2GPI: Fc region of mouse IgG2a attached to full length mouse β2GPI (domains I-V); SEQ ID NO:19 (protein, listed as Mus musculus)
# chain: EPRGPTIKPCPPCKCPAPNLLGGPSVFIFPPKIKDVLMISLSPIVTCVVVDVSEDDPDVQISWFVNNVEVHTAQTQTHREDYNSTLRVVSALPIQHQDWMSGKEFKCKVNNKDLPAPIERTISKPKGSVRAPQVYVLPPPEEEMTKKQVTLTCMVTDFMPEDIYVEWTNNGKTELNYKNTEPVLDSDGSYFMYSKLRVEKKNWVERNSYSCSVVHEGLHNHHTTKSFSRTPGKTGGRICPKPDDLPFATVVPLKTSYDPGEQIVYSCKPGYVSRGGMRRFTCPLTGMWPINTLRCVPRVCPFAGILENGIVRYTSFEYPKNISFACNPGFFLNGTSSSKCTEEGKWSPDIPACARITCPPPPVPKFALLKDYRPSAGNNSLYQDTVVFKCLPHFAMIGNDTVMCTEQGNWTRLPECLEVKCPFPPRPENGYVNYPAKPVLLYKDKATFGCHETYKLDGPEEAECTKTRTWSFLPTCRESCKLPVKKATVLYQGMRVKIQEQFKNGMMHGDKIHFYCKNKEKKCSYTVEAHCRDGTIEIPSCFKEHSSLAFWKTDASELTPC
# Key:
# [1] = Fc-mβ2GPI binding to PS-coated plates; conditions: cell culture supernatants #8 and #18
# Protocol: FIG. 20. Fc-mβ2GPI binds PS on PS-coated plates. In this binding assay, a microtiter plate was coated with PS and blocked with 1% OVA. Serial dilutions of Fc-mβ2GPI cell culture supernatants were performed in 1% OVA. #8 and #18 are two different clones of Fc-mβ2GPI. Binding was detected with anti-mouse IgG-HRP.
# Fc-mβ2GPI was able to bind to PS on PS-coated plates.
# [2] = Fc-mβ2GPI binding to phospholipids in 10% FBS
# Protocol: FIG. 21. Fc-mβ2GPI binds anionic phospholipids. This assay measures Fc-mβ2GPI binding to phospholipids in 10% FBS. The microtiter plates were coated with various lipids, as indicated, and blocked with 1% OVA. Serial dilutions of Fc-mβ2GPI cell culture supernatant were performed in 1% OVA. Binding was detected with anti-mouse IgG-HRP.
# ABAE cells = test: Fc-mβ2GPI binding to cells with exposed PS; assay type: cell-based, bovine
# Protocol: FIG. 22A, FIG. 22B and FIG. 22C. Fc-mβ2GPI detects PS exposed on naturally apoptotic ABAE cells. 2×10^4 ABAE cells were seeded onto 8-well glass chamber slides in DMEM+10% FBS overnight at 37° C. The next day, cells were washed and incubated with 2aG4 (FIG. 22A), supernatant from Fc-mβ2GPI transfected CHO cells (FIG. 22B), or mock transfected cells (“control supernatant”, FIG. 22C). 2aG4 and Fc-mβ2GPI were detected with a FITC-labeled secondary antibody (green). The cytoskeletons and nuclei were counter-stained with Texas Red-labeled phalloidin and DAPI (blue), respectively. Arrows highlight apoptotic cells.
# FIG. 23A and FIG. 23B. Fc-mβ2GPI detects PS exposed on LPC-treated ABAE cells. 2×10^4 ABAE cells were seeded onto 8-well glass chamber slides in DMEM+10% FBS overnight at 37° C. The next day, cells were washed and incubated supernatant from Fc-mβ2GPI transfected CHO cells. Fc-mβ2GPI was detected with a FITC-labeled secondary antibody (green). The cytoskeletons and nuclei were counter-stained with Texas Red-labeled phalloidin and DAPI (blue), respectively. FIG. 23A and FIG. 23B each depict binding of Fc-mβ2GPI, seen as small pinpoints of green staining.
molecule,measurement,setting,value
B1,binding to PS on PS-coated plates,[1],bind to PS in a concentration-dependent manner
same,binding to phospholipids,[2],"binds to the anionic phospholipids PS, PA, PI and PG, but not to the neutral lipids, PC and SM"
same,binding to LPC-treated ABAE cells,ABAE cells,bind to PS exposed at the cell surface
same,staining of naturally apoptotic ABAE cells,ABAE cells,stain the apoptotic cells
